In the nanobody polyreactivity screen of Harvey et al. (2022):

Assay: yeast display, Sf9 membrane polyspecificity reagent, FACS + sequencing; frameworks hold sequencing errors
How it was run: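 Galactose induction of a Saccharomyces cerevisiae BJ5465 synthetic nanobody display library ran 36–48 hours. The cells were then stained for 1 hour at 4 °C with 10% biotinylated, detergent-solubilized Sf9 membrane reagent, pulled down on streptavidin microbeads and FACS-sorted into low and high (top ~1%) gates on expression and reagent-binding fluorescence. Labels for polyreactivity follow the gate of origin.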

With “QVQLVESGGGLVQAGGSLRLSCAASGSTFYTYDMGWYRQAPGKERELVASITSGGSTNYADSVKGRFTISRDNAKNTVYFQMYCMKPVDTAVYYCAVGTYTIYSGTLYDYKYYWGQGTVVTVSS” the “polyreactivity (PSR sort gate)” value was “low polyreactivity”.

For “QVQLVESGGGLVQAGGSLRLSCAASGSTFYVNAMGWYRQAPGKERELVAYADSVKGRFTISRDNAKNTVYLQMNSLKPEDTAVYYCNADIEYRPGHGRLGDYDYWGQGTQVTVSS”, the “polyreactivity (PSR sort gate)” value was “low polyreactivity”.

With “QVQLVESGGGLVQAGGSLRLSCAASGSTFYVYAMGSYRQAPGKERELVAAITRGGSTYYADSVKARFTISRDNAKNTVYLQMNSLKPEDTAVYYCAKYLTGAADLVPEYDYWGQGTQVTVSS” the “polyreactivity (PSR sort gate)” value was “low polyreactivity”.

In the case of “QVQLVESGGGLVQAGGSLRLSCAASGSTFYVYAMGWYRQAPGKEREFVAAISFSSGSTYYADSVKGRFTISRDYAKNTVYLQMNSLKPEDTAVYYCAARYRYPRSIGYGYGGAFDYWGQGTQVTVSS”, the “polyreactivity (PSR sort gate)” value is reported as “high polyreactivity”.

With “QVQLVESGGGLVQAGGSLRLSCAASGSTFYVYAMGWYRQAPGKERELVAAIDSGDSTNYADSVKGRFTISRDNAKNTVYLQMNSLNPEDTAVYYCAVGYWDSRYRYDWPNSDYWGQGTQVTVSS” the “polyreactivity (PSR sort gate)” value was “low polyreactivity”.

In the case of “QVQLVESGGGLVQAGGSLRLSCAASGSTFYVYAMGWYRQAPGKERELVAAITVRGGSTYYADSVKGRFTISRDNAKYTVYLQMNSLKPEDTAVYYCAVDVSKPYYEMDYWGQGTQVTVSS”, the “polyreactivity (PSR sort gate)” value is reported as “high polyreactivity”.

For “QVQLVESGGGLVQAGGSLRLSCAASGSTFYVYDMGWYRQAPGKERELVAAITRRGGSTYYADSVKGRFTISRDNAKNTVYLQMNSLKPVDTAVYYCAARTAYYPTHRYYWGQGTQVTVSS”, the “polyreactivity (PSR sort gate)” value was “high polyreactivity”.

In the case of “QVQLVESGGGLVQAGGSLRLSCAASGSTFYWYAKGWYRQAPGKERELVAAITSTGGSTYADSVKGRFTISRDNAKNTVYLQMNSLKPEDTAVYYCNVDTSSPSRRDYDYWGQGTQVTVSS”, the “polyreactivity (PSR sort gate)” value is reported as “low polyreactivity”.

For “QVQLVESGGGLVQAGGSLRLSCAASGSTFYWYSMGWYRQAPGKERELVAAITSTGGSTYADSVKGRFTISRDNAKNTVYLQMNSLKPEDTAVYYCNVDTSSPSRRDYDYWGQGTQVTVSS”, the “polyreactivity (PSR sort gate)” value was “low polyreactivity”.

For “QVQLVESGGGLVQAGGSLRLSCAASGSTFYWYTMGWYRQAPGKEREMVATITSVGRTNYADSVKGRFTISRDNAKNTVYLQMNSLKPEDTAVYYCAASKARWPRGGSKYYYWGQGTQVSVSS”, the “polyreactivity (PSR sort gate)” value was “high polyreactivity”.

With “QVQLVESGGGLVQAGGSLRLSCAASGSTFYYAIGRYRQAPGKERELVASITFSTGSTYYADSVKGRFTISRDNAKNTVYLQLNSLKPEDTAVYYCATGVDTYSLTVEHDSWGQGTQVTVSS” the “polyreactivity (PSR sort gate)” value was “low polyreactivity”.

For “QVQLVESGGGLVQAGGSLRLSCAASGSTFYYAMGWYRQAPGKERELVASITFSTGSTYYADSVKGRFTISRDNAKNTVYLQMTSLKPEDTAVYYCATGVDTYSLTVEHDSWGQGTQVTVSS”, the “polyreactivity (PSR sort gate)” value was “low polyreactivity”.

In the case of “QVQLVESGGGLVQAGGSLRLSCAASGSTFYYKSMGWYRQAPGKERELVAAITFTGGSTYADSVKGRFTISRDNAKNTVYLQMNSLIPEDTAVYYCAATIQGHDYLGTGYDYWGQGTQVTVSS”, the “polyreactivity (PSR sort gate)” value is reported as “low polyreactivity”.

With “QVQLVESGGGLVQAGGSLRLSCAASGSTFYYNAMGWYRQAPGKETELVADISWRGGITYYADSVKGRFTISRDNAKNTVYLQMNSLKPEDTAVYYCNADAESFDDGYWGQGTQVTVSS” the “polyreactivity (PSR sort gate)” value was “low polyreactivity”.

With “QVQLVESGGGLVQAGGSLRLSCAASGSTFYYNTMGWYRQAPGKERELVAAITSGDTTYYADSVKGRFTISRDNAKNTVYLQMNSLKPEDTAVYYCAAAWPYARYDYWGQGTQVTVSS” the “polyreactivity (PSR sort gate)” value was “low polyreactivity”.

In the case of “QVQLVESGGGLVQAGGSLRLSCAASGSTFYYYAMGWSRQAPGKERELVAGITWSGGRTYYADSVKGRFTISRDNAKNTVYLQMNSLKTEDTAVYYCAASLYTWTYQPVYYRDGYWGQGTQVTVSS”, the “polyreactivity (PSR sort gate)” value is reported as “low polyreactivity”.

With “QVQLVESGGGLVQAGGSLRLSCAASGSTFYYYAMGWSRQAPGQERELVAAISWRGSSTYYADAVQGRFTISRDNAKNTVYLQLNSLKPEDTAVSYCAAGYPGRVSGYRYGTRATYYYWGQGTQVTVSS” the “polyreactivity (PSR sort gate)” value was “high polyreactivity”.

In the case of “QVQLVESGGGLVQAGGSLRLSCAASGSTFYYYAMGWYRPAPGKERELVAAIRSDVSTNYADSVKGRFTISRDNAKNTVYLQMNSLKPEDTAVYYCAARFPWNRVTYDYWGQGTQVTVSS”, the “polyreactivity (PSR sort gate)” value is reported as “low polyreactivity”.

With “QVQLVESGGGLVQAGGSLRLSCAASGSTFYYYAMGWYRQAPGKEMELVAAISGSGGNTYYADSVKGRFTISRDNAKNTVYLQMNSLKPEDTAVYYCAADYGYPLGVSWYGYGYWGQGTQVTVSS” the “polyreactivity (PSR sort gate)” value was “low polyreactivity”.

For “QVQLVESGGGLVQAGGSLRLSCAASGSTFYYYAMGWYRQAPGKERELVAAIDRDDRTNYADSVKGRFTISRDNAKNTVYLQMNSLKPEDTAVYYCAAVEIYEYDYWGQGTQVTVSS”, the “polyreactivity (PSR sort gate)” value was “low polyreactivity”.

In the case of “QVQLVESGGGLVQAGGSLRLSCAASGSTFYYYAMGWYRQAPGKERELVAAINSSGGNTYYADSVKGRFTISRDNAKNTVYLQMNSLKPEDTAVYYCATGQIAYSSYGPFDYWGQGTQVTVSS”, the “polyreactivity (PSR sort gate)” value is reported as “low polyreactivity”.

For “QVQLVESGGGLVQAGGSLRLSCAASGSTFYYYAMGWYRQAPGKERELVAAINSSGGNTYYADSVKGRFTISRDNAKNTVYLQMNSLNPEDTAVYYCATEYYWLQDYDYWGHGTQVTVSS”, the “polyreactivity (PSR sort gate)” value was “low polyreactivity”.

For “QVQLVESGGGLVQAGGSLRLSCAASGSTFYYYAMGWYRQAPGKERELVAAISWSGGSTYYADSVKGRFTISRDNAKNTVYLQMNSLKPEDTAVYYCNKYVRFRGGAYVTGYDYWGQGTQVTVSS”, the “polyreactivity (PSR sort gate)” value was “high polyreactivity”.

With “QVQLVESGGGLVQAGGSLRLSCAASGSTFYYYAMGWYRQAPGKERELVAAITKSGGSTYYADSVKGRFTISGDNAKNTVYLQMNTLKPEDTAVYYCAAYLRSGYKFDYWGQGTQVTVSS” the “polyreactivity (PSR sort gate)” value was “low polyreactivity”.

For “QVQLVESGGGLVQAGGSLRLSCAASGSTFYYYAMGWYRQAPGKERELVAAITYSGGGTYYADSVKGRFTISRDNAKNTFYLQMNSLKPEDTAVYYCAKTIAVNTWYYYWGQGTQVTVSS”, the “polyreactivity (PSR sort gate)” value was “low polyreactivity”.

With “QVQLVESGGGLVQAGGSLRLSCAASGSTFYYYAMGWYRQAPGKERELVASISASGGNTYYADSVKGRFTISRDNAKNTVYLQMNSLKPEDTAVYYCAARARRSQSISLKYYYWGQGTQVTVSS” the “polyreactivity (PSR sort gate)” value was “high polyreactivity”.

With “QVQLVESGGGLVQAGGSLRLSCAASGSTFYYYAMGWYRQAPGKERELVASISDDGSTNYADSVKGRFTISRDNAKNTVYLQMNSLKPEDTAVYYCAAVWWHQFGSAWYQMGYWGQGTQVTVSS” the “polyreactivity (PSR sort gate)” value was “low polyreactivity”.

With “QVQLVESGGGLVQAGGSLRLSCAASGSTFYYYAMGWYRQAPGKERELVASITTGGGSTYYADSVKGRFTISRDNAKNTFYLEMNSLKPEDTAVYYCAAALSYYFWWYDYLGQGTQVTVSS” the “polyreactivity (PSR sort gate)” value was “low polyreactivity”.

For “QVQLVESGGGLVQAGGSLRLSCAASGSTFYYYAMGWYRQAPGKERELVATITSTGRTNYADSVKGRFTISRDNAKNTVYLQMNSLKPEDTAVYYCAALRRIQRPEYGYWGQGTQVTVSS”, the “polyreactivity (PSR sort gate)” value was “low polyreactivity”.

With “QVQLVESGGGLVQAGGSLRLSCAASGSTFYYYARGWYRQAPGKERELVATITSGASTNYADSVKGRFTISRDNAKNTVYLQMNSLKPEDTAVYYCNAVSLTSYLPWSSYDYWGQGTQVTVSS” the “polyreactivity (PSR sort gate)” value was “low polyreactivity”.

With “QVQLVESGGGLVQAGGSLRLSCAASGSTFYYYGMGWYRQAPGKERELVASISWGGGSTYYADSVKGRFTISRDNAKNTVYLQMNILKPEDTAVYYCATRGSYLGGLYDYWGQGTQVTVSS” the “polyreactivity (PSR sort gate)” value was “high polyreactivity”.

For “QVQLVESGGGLVQAGGSLRLSCAASGSTFYYYGMGWYRQAPGKESALVAAISSSGGNTYYADSVKGRFTISRDNAKNTVYLQMNSLKPEDTAVYYCARGGHRGYWGQGTQVTVSS”, the “polyreactivity (PSR sort gate)” value was “low polyreactivity”.
